Entries after “also recorded” stand apart in the source; their conditions may differ.
Assays:
[1] = molecular target: T1, mouse CD36 (Mus musculus, UniProt Q08857); assay: Binding of AIM to CD36-overexpressing HEK293 cells (confocal microscopy); settings: HEK293 cells overexpressing FLAG-tagged mouse CD36, cultured with mouse AIM for 3 hours
T1 construct: expressed in transfected cells; host or cells: HEK293 (called HEK293T)
Experimental: CD36 is a twice-transmembrane-type molecule, is expressed on adipocytes and macrophages, and is involved in intracellular internalization of many molecules including fatty acids, LDL, and the like. Thus, HEK293 cells in which mouse CD36 fused with a FLAG-tag at its C terminus was overexpressed were produced, and the cells were cultured with mouse AIM for 3 hours. Subsequently, the cells were collected, stained using an anti-AIM antibody and an anti-CD36 antibody, and observed under a confocal microscope.

[2] = test system: mature adipocytes (differentiated 3T3-L1 cells); assay: Induction of lipolysis in mature 3T3-L1 adipocytes (lipid droplets, glycerol and free fatty acid efflux); format: cell-based, mouse
Experimental: The effect of AIM on mature adipocytes was examined.
Then, the cells on the 10th day (day 12) after the initiation of the stimuli for differentiation induction were stained with oil-red-o. The number of cells having lipid droplets was counted. Further, the diameter of lipid droplets was measured in the cells having lipid droplets. For comparison, the number of the cells was counted and the diameter of lipid droplets was measured for the cells cultured in the above-mentioned schedules (a) and (d).
Further, the supernatant of the culture medium after the cells were cultured while loading AIM according to the schedule (e) was collected, and amounts of glycerol and free fatty acid (FFA) contained in the supernatant were measured by ELISA. For the comparison, the amounts of glycerol and free fatty acid in the culture supernatant obtained according to the schedule (a) were also measured.
In order to avoid adsorption of free fatty acid to albumin contained in the culture medium, the culture medium supplemented with 10% FBS (fetal bovine serum) was exchanged to a serum-free culture medium on the 10th day (day 12) after the initiation of the differentiation induction, further the cells were cultured in the serum-free culture medium for 6 hours, and subsequently the amounts of glycerol and free fatty acid contained in the supernatant of the serum-free culture medium were measured.
FIG. 7A and FIG. 7B illustrate the evaluation results of the number (per 10^4 μm^2) of cells having lipid droplets (Droplet (+) cells) and the relative diameter of lipid droplets (%) obtained according to the schedules (a), (d), and (e) (Exp. a, d, and e), respectively. The relative diameter of lipid droplets illustrated in FIG. 7B was calculated by defining the diameter of lipid droplets in the cells obtained according to the schedule (a) without AIM loading as 100%. FIG. 8A and FIG. 8B illustrate the concentration of glycerol (Glycerol Efflux, mM) and the concentration of free fatty acid (FFA Efflux, ×10 mM) in the culture medium obtained according to the schedules (a) and (e) (Exp. a and e), respectively.
In addition, FIG. 13A and FIG. 13B illustrate the results of measuring the glycerol concentration (glycerol efflux, mM) and the free fatty acid concentration (FFA efflux, ×10 mM) in the culture medium on the 10th day (day 12) after the initiation of the differentiation induction in the case of loading no AIM according to the schedule (a) (None), the case of loading AIM according to the schedule (f) (AIM), and the case of loading the FAS inhibitor according to the schedule (f) (C75), respectively.

[3] = test system: 3T3-L1 cells; assay: Endocytosis of AIM into differentiated 3T3-L1 cells (confocal and immunoelectron microscopy); format: cell-based, mouse
Experimental: Subsequently, the cells were collected, and intracellularly stained using an anti-AIM antibody. Further, nuclei in the cells were stained using DAPI.
FIG. 16A and FIG. 16B show immunoelectron micrographs of the cells cultured for 3 hours (3 hr) and 12 hours (overnight) after being loaded with AIM, respectively.

[4] = test system: 3T3-L1 preadipocytes; assay: Differentiation of 3T3-L1 preadipocytes into mature adipocytes, oil-red-o staining; format: cell-based, mouse
Experimental: In order to examine how AIM produced by the macrophages infiltrating the adipose tissues works on surrounding adipocytes, an experiment in which AIM was loaded during a culture process of differentiating 3T3-L1 preadipocytes into the mature adipocytes was performed.
A recombinant mouse AIM protein and a recombinant human AIM protein were used as AIM. Those recombinant AIM proteins were prepared by culturing human-derived HEK293T cells transfected with a vector expressing mouse AIM or human AIM and isolating and purifying the protein from its culture supernatant. The same recombinant AIM proteins were also used as AIM in other examples shown below. AIM was loaded by adding AIM at a concentration of 5 μg/mL to the culture medium.
Differentiation induction (Induction) of the 3T3-L1 cells was initiated by first culturing the 3T3-L1 cells for 4 days (day −2 to day 2) to proliferate the cells (Cell proliferation) and subsequently culturing the cells in a culture medium containing insulin, dexamethasone (DEX), and isobutylmethylxanthine (IBMX) for 2 days (day 2 to day 4). The differentiation induction was further continued by culturing the cells in a culture medium containing insulin for 2 days (day 4 to day 6).
After the period of the differentiation induction (day 2 to day 6), the culture was continued in a culture medium not containing those differentiation-inducing factors. Then, the cells on the 10th day (day 12) after the initiation of the stimuli for differentiation induction were stained with oil-red-o, and the differentiation of the 3T3-L1 cells to mature adipocytes was observed.
In addition, using a FAS inhibitor (C75) in place of AIM, the FAS inhibitor at a concentration of 25 μM was loaded according to the schedules (d) and (f), and as was the case with the above-mentioned AIM, the cells were collected on the 2nd day (day 4: schedule (d)) and 10th day (day 12: schedule (f)) after the initiation of the differentiation induction, and the enzyme activity of FAS was measured.
FIG. 12A and FIG. 12B show the results of staining the cells with oil-red-o and analyzing the gene expression by RT-PCR on the 2nd day (day 4) after the initiation of the differentiation induction in the case of loading no AIM according to the schedule (a) (None), the case of loading AIM according to the schedule (d) (AIM (5 μg/mL)), and the case of loading the FAS inhibitor according to the schedule (d) (C75 (25 μM)), respectively.

[5] = molecular target: T2, CD36 (Mus musculus, UniProt Q08857); assay: Incorporation of intravenously injected rAIM into adipose tissue of CD36-/- and CD36+/+ mice; format: in vivo; settings: mouse rAIM 300 μg/mouse intravenous, 16 hours, epididymal adipose tissue
T2 construct: endogenous in cells; host or cells: differentiated 3T3-L1 adipocytes
T2 sequence (Q08857 whole entry): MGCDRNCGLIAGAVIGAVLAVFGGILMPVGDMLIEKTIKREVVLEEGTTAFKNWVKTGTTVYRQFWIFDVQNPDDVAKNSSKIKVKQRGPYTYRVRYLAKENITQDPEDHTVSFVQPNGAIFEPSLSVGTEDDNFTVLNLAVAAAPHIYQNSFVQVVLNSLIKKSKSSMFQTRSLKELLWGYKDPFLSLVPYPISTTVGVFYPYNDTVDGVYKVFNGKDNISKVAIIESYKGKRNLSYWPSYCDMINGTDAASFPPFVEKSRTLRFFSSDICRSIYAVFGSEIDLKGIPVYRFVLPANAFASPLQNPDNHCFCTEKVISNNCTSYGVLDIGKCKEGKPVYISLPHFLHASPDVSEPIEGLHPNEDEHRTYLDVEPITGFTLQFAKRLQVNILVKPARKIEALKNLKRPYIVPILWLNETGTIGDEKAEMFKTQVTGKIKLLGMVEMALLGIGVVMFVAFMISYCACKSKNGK
Experimental: Mouse rAIM was intravenously injected into each of a CD36^−/− mouse which was deficient for CD36 and a wild-type CD36^+/+ mouse, and the incorporation of rAIM into the adipose tissues was analyzed. That is, an injection prepared by dissolving rAIM in PBS was intravenously injected into each of the CD36^−/− mouse and the CD36^+/+ mouse (300 μg/mouse). At 16 hours after the injection, the mice were sacrificed, and tissue sections were made from their epididymal adipose tissue. Then, the tissue sections were stained with an anti-AIM antibody.

[6] = mouse AIM, schedule (e), compared with schedule (a)

T1 sequence (Q08857 whole entry): as above

B1: AIM: apoptosis inhibitor of macrophage, secretory protein with three SRCR domains; recombinant mouse and human AIM in Example 2, mouse AIM in Examples 3-16 (protein)
chain: ESPTKVQLVGGAHRCEGRVEVEHNGQWGTVCDDGWDRRDVAVVCRELNCGAVIQTPRGASYQPPASEQRVLIQGVDCNGTEDTLAQCELNYYVFDCSHEEDAGAQCENPDSDLLFIPEDVRLVDGPGHCQGRVEVLHQSQWSTVCKAGWNLQVSKVVCRQLGCGRALLTYGSCNKNTQGKGPIWMGKMSCSGQEANLRSCLLSRLENNCTHGEDTWMECEDPFELKLVGGDTPCSGRLEVLHKGSWGSVCDDNWGEKEDQVVCKQLGCGKSLHPSPKTRKIYGPGAGRIWLDDVNCSGKEQSLEFCRHRLWGYHDCTHKEDVEVICTDFDV
binding of AIM to sites at which CD36 was expressed on the cells [1]: had been bound to sites | concentration of free fatty acid in the culture supernatant [2, 6]: remarkably increased | concentration of glycerol in the culture supernatant [2, 6]: remarkably increased | diameter of lipid droplets contained in adipocytes, relative to schedule (a) ([2]; mouse AIM, schedule (e): day 6 to day 12, schedule (a) without AIM defined as 100%): about 25% | number of the cells having lipid droplets ([2]; mouse AIM, schedule (e): day 6 to day 12 after differentiation, compared with schedule (a) without AIM): remarkably decreased | localisation of AIM, immunoelectron microscope ([3]; cells cultured in the presence of AIM for 3 hours): accumulated like the dots on the membrane of particles thought to be endosomes | localisation of AIM, immunoelectron microscope ([3]; cells cultured in the presence of AIM for 12 hours): migrated therefrom into the cytoplasm | accumulation of AIM on phagosomes, phagolysosomes, or mitochondria ([3]; immunoelectron microscope): No AIM was accumulated | endocytosis of AIM into the cytoplasm, confocal microscope ([3]; mouse AIM 5 μg/mL, 3 hours, day 4 of culture): endocytosed like dots | increase of the number of dead cells due to the loading of AIM ([4]; 3T3-L1 cells loaded with AIM): not observed | differentiation of the 3T3-L1 cells to the mature adipocytes ([4]; AIM continuously loaded day -2 to day 12, data not shown): completely inhibited | differentiation of the 3T3-L1 cells ([4]; mouse or human rAIM 5 μg/mL, schedule (b): day 2 to day 12, stained day 12): almost completely inhibited | differentiation of the 3T3-L1 cell ([4]; mouse or human rAIM 5 μg/mL, schedule (d): early phase of differentiation induction only (day 2 to day 4), stained day 12): almost completely inhibited | differentiation of the 3T3-L1 cells to the mature adipocytes ([4]; schedule (c): AIM only before differentiation induction (day -2 to day 2)): not inhibited

B2: mouse AIM: protein consisting of the amino acid sequence shown in SEQ ID NO: 5; recombinant, purified from HEK293T culture supernatant (protein)
chain: MAPLFNLMLAILSIFVGSCFSESPTKVQLVGGAHRCEGRVEVEHNGQWGTVCDDGWDRRDVAVVCRELNCGAVIQTPRGASYQPPASEQRVLIQGVDCNGTEDTLAQCELNYYVFDCSHEEDAGAQCENPDSDLLFIPEDVRLVDGPGHCQGRVEVLHQSQWSTVCKAGWNLQVSKVVCRQLGCGRALLTYGSCNKNTQGKGPIWMGKMSCSGQEANLRSCLLSRLENNCTHGEDTWMECEDPFELKLVGGDTPCSGRLEVLHKGSWGSVCDDNWGEKEDQVVCKQLGCGKSLHPSPKTRKIYGPGAGRIWLDDVNCSGKEQSLEFCRHRLWGYHDCTHKEDVEVICTDFDV
modifications: mouse
notes: recombinant, purified from HEK293T culture supernatant
amount of rAIM internalized into the adipocytes, CD36-/- mouse compared with CD36+/+ mouse [5]: remarkably smaller | lipolysis induction function in adipocytes derived from mice ([2]; mouse AIM and human AIM compared, same range of concentrations in vitro): similarly exerted | differentiation of 3T3-L1 cells derived from mice / differentiation inhibitory function ([4]; mouse AIM and human AIM compared, in vitro): inhibited; also recorded: similarly exerted

From patent US8591913B2, “Methods of decreasing adipose tissue” (Toru Miyazaki, priority 2009, dated 2013)
